For assay [1] the following is noted: collected from the references cited; read-out: Activities (Kd), Morphine; cited from earlier work.
The conditions of assay [2]: cited from earlier work.
For assay [3] the following is noted: mice; cited from earlier work.
Assay [4] in a line: Competitive binding of [H^3]-morphine against naloxone.
Assay [5] can be described thus: Competitive binding of [H^3]-morphine against meperidine. The note with it: read-out: Kd, meperidine; from IC50 against 2 nM [H^3]-morphine.
The conditions of assay [6]: read-out: Kd, morphine; 2 nM [H^3]-morphine, room temperature, 60 minutes, pH 7.4.
Description: The binding constant of the antibody with [H^3]-morphine were tested using liquid scintillation counting. Briefly, 2 nM [H^3]-morphine was incubated with different concentration of antibody at room temperature for 60 minutes. The total volume of mixture was 100 and pH was 7.4.
Assay [7] is described as follows: Competitive binding of [H^3]-morphine against naltrexone.
Assay [8] can be described thus: Competitive binding of [H^3]-morphine against oxycodone. The note with it: read-out: Kd, oxycodone; from IC50 against 2 nM [H^3]-morphine.
Setting [9] is: collected from the references cited, read-out: Activities (Kd), 6-MAM.
Setting [10] is: 10 μM competing drug, 60 nM antibody, 2 nM [H^3]-morphine.

Where two headings read alike, the source gives them in different places.

B1: Ab19 (antibody, V domains shown)
VH: EVQLVESGGGLVQPGRSLRLSCAASGFSFGDYARIMVRQAPGKGLEWVSGISWDSYTTGYADSVKGRFTVSRDNAICNSLYLQMNSLRPEDTAVYYCAKAPSPRRVIIEYFDSDYWGGTSLTVSS
VL: QSVLTQPPSVSGAPGQRVTISCTGSSSNIGAGYDVHWYQQLPGTAPKLLIYGNSNRPSGVPDRFSGSKSGTSASLAITGLQAEDEADYYCQSYDSSLRGVVFGGGTKLTVL
modifications: Ab19 - Heavy chain; Ab19 - Light chain
Regarding B1, the Kd was not below 10000 nM in assay [1] and 160 nM in assay [2] (setting [9]).

B2: Ab20: known anti-6-MAM antibody 6-MAM-102; heavy chain SEQ ID NO: 32, light chain SEQ ID NO: 58 (antibody, V domains shown)
VH: EVQLVESGGGLVQPGRSLRLSCAASGFSFGDYAIHMVRQAPGKGLEWVSGISWDSYTTGYADSVKGRFTVSRDNAKNSLYLQMNSLRPEDTAVYYCAKAPSPRRVHEYFDSDYWGQGTSLTVSS
VL: QSALTQPASVSGAPGQRVTMSCTGSSSNIGAGYDVHWYQQLPGTAPKLLIFGNTNRPSGVPDRFSASKSGTSASLAITGLQAEDEADYYCQSYDNSLSGVVFGGGTKLTVL
modifications: Ab20 - Heavy chain; Ab20 - Light chain
Take B2: the Kd was more than 10000 nM in assay [1] and 170 nM in assay [2] (setting [9]).

B3: Ab24: known anti-6-MAM antibody 6-MAM-120; heavy chain SEQ ID NO: 36, light chain SEQ ID NO: 62 (antibody, V domains shown)
VH: EVQLVESGGGLVQPGRSLRLSCAASGFTFGDYAIHMVRQAPGKGLEWVAGISWDSYTTGYADSVKGRFTVSRDNAKNSLYLQMNSLRPEDTAVYYCAICAPSPRRVIIEYFQYDYWGQGTSLTVSS
VL: QSALTQPASVSGAPGQRVTISCTGSSSNIGAGYDVHWYQQLPGTAPKLLIYGNSNRPSGVPDRFSGSKSGTSASLAITGLQAEDEADYYCQSYDSSLSGVVFGGGTKLTVL
modifications: Ab24 - Heavy chain; Ab24 - Light chain
Consider B3, for which the results for the Kd in assay [1] and in assay [2] (setting [9]) were more than 10000 nM and 250 nM, respectively.

B4: Ab21: known anti-6-MAM antibody 6-MAM-103; heavy chain SEQ ID NO: 33, light chain SEQ ID NO: 59 (antibody, V domains shown)
VH: EVQLVESGGGLVQPGRSLRLSCAASGFSFGDYAIHMVRQAPGKGLEWVSGISWDSYTTGYADSVKGRFTVSRDNAICNSLYLQMNSLRPEDTAVYYCAKAPSPRRVIIEYFDSDYWGQGTSLTVSS
VL: QSALTQPASVSGAPGQRVTISCTGSSSNIGAGYDVHWYQQLPGTAPKLLIYGNSNRPSGVPDRFSGSKSGTSASLAITGLQAEDEADYYCQSYDSSLSGVVFGGGTKLTVL
modifications: Ab21 - Heavy chain; Ab21 - Light chain
Turning to B4, the Kd in assay [1] is more than 10000 nM; in assay [2] (setting [9]), 100 nM.

B5: Ab17: known 6-MAM-specific mAb 6-MAM-214; heavy chain SEQ ID NO: 29, light chain SEQ ID NO: 55 (antibody, V domains shown)
VH: EVQLVESGGGLVQPGRSLRLSCAASGFSFGDYAIHMVRQAPGKGLEWVSGISWDSYTTGYADSVKGRFTVSRDNAKNSLYLQMNSLRPEDTAVYYCAKAPSPRRVIIEYFDSDYWGQGTSLTVSS
VL: QSALTQPASVSGAPGQTVSISCTGWSSNIGAGYDVHWYQQLPGTAPKLLISHNTNRPSGVPDRFSGSKSGTSASLAITGLQAEDEADYYCQSYDSTLGVVVEGGGTICLTVL
modifications: Ab17 - Heavy chain; Ab17 - Light chain
With B5, the “Effect on acute heroin effects” value in assay [3] was “able to reduce the acute heroin effects in mice”. Moreover, the Kd is more than 10000 nM in assay [1]; 300 nM in assay [2] (setting [9]); 300 nM in assay [2] (literature value, read-out: affinity for 6-MAM).

B6: Ab22: known anti-6-MAM antibody 6-MAM-108; heavy chain SEQ ID NO: 34, light chain SEQ ID NO: 60 (antibody, V domains shown)
VH: EVQLVESGGGLVQPGRSLRLSCAASGFSFGDYAIHMVRQAPGKGLEWVSGISWDSYTTGYADSVKGRFTVSRDNAKNSLYLQMNSLRPEDTAVYYCAKAPSPRRVIIEYFDSDYWGQGTSLTVSS
VL: QSVLTQPPSVSGAPGQRVTISCTGSSSNIGAGYDVHWYQQLPGTAPKLLWGNSNRPSGVPDRFSGSKSGTSASLAITGLQAEDEADYYCQSYDSSLSGVVFGGGTKLTVL
modifications: Ab22 - Heavy chain; Ab22 - Light chain
Consider B6, for which the Kd was more than 10000 nM in assay [1] and 170 nM in assay [2] (setting [9]).

B7: UK6Mab02: fully humanized antibody (H1L3) designed from Ab13, with human IgG1 heavy and kappa light constant regions (antibody, V domains shown)
VH: EVQLVQSGAEVKKPGASVKISCKASGYTFTSYWIEWVKQAPGKGLEWIGEINPSGGSTIYAEKFQGRATFTADTSTSTAYMELSSLRSEDTAVYYCARWVLDYYGMDYWGQGTSLTVSS
VL: QAVVTQEPSLTVSPGGTVTLTCGSSTGAVTSGNYANWVQQKPGQAFRGLIGGTNTRSSGVPDRFSGSLLGGKAALTISGAQPEDEAEYYCALWYSNKLVFGGGTKLTVL
modifications: H1 (UK6Mab02) Heavy Chain; L3 (UK6Mab02) - Light chain
Consider B7, for which the “Binding with naloxone in initial screening” value in assay [4] (setting [10]) is “did not show significant binding affinities”. The Kd in assay [4] (read-out: Kd, naloxone, from competition with 2 nM [H^3]-morphine) is more than 10000 nM; in assay [5] it was 15700 nM; in assay [6] it was 127 nM; in assay [7] (read-out: Kd, naltrexone, from competition with 2 nM [H^3]-morphine), more than 10000 nM; in assay [8], 6910 nM. Also, the “Binding with naltrexone in initial screening” value in assay [7] (setting [10]) is “did not show significant binding affinities”.

The values above are taken from patent US12065507B2 (priority 2020, dated 2024).
